# T1: ERH-2^1-103-(Gly-Ser-Ser)7-PICS-1^180-200 fusion protein (C. elegans, UniProt Q20057 1-103; O76616 180-200)
# T1 construct: ERH-2, C. elegans, residues 1-103; 21-aa linker (Gly-Ser-Ser)7; PICS-1 (PID-3), C. elegans, EBM, residues 180-200; the methods describe only the 1-103 fusion; also called ERH-2-(GSS)7-PICS-1180-200; ERH-2-(GSS)7-PICS-1; source: E. coli BL21(DE3), purified (Ni-NTA, TEV cleavage, second Ni-NTA, Superdex 75); not shown: His tag (inferred from the Ni-NTA purification), N-terminal, cleaved
# T1 chain: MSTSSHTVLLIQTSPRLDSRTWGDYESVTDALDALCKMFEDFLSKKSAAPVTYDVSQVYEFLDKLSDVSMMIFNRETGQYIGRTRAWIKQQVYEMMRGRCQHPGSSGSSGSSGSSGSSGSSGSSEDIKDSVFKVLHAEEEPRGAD
# T2: ERH-2 (C. elegans, UniProt Q20057 1-113)
# T2 construct: ERH-2, C. elegans, amplified from a cDNA library; also called ERH-2 wild type; source: E. coli BL21(DE3), purified (Ni-NTA, TEV cleavage, second Ni-NTA); not shown: His tag (inferred from the Ni-NTA purification), N-terminal, cleaved
# T2 sequence (looked up): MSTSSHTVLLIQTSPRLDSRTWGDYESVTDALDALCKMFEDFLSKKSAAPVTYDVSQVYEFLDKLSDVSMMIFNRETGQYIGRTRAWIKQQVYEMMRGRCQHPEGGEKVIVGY
# T3: ERH-2 D67A (C. elegans, UniProt Q20057 1-113, D67A)
# T3 construct: ERH-2, C. elegans, with D67A; Cloned into pET28-MHL; also called D67A(ERH-2); source: E. coli BL21(DE3), purified (Ni-NTA, TEV cleavage, second Ni-NTA); not shown: His tag (inferred from the Ni-NTA purification), N-terminal, cleaved
# T3 sequence (looked up): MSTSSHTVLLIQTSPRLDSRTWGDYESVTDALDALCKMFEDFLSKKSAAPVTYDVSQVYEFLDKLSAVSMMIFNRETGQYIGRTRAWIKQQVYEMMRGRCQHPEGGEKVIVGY
# T4: TOFU-6 RRM domain (TOFU-6^RRM, residues 2-92) (C. elegans, UniProt Q09293 2-92)
# T4 construct: TOFU-6, C. elegans, RRM domain, residues 2-92; source: E. coli BL21(DE3), purified (Ni-NTA, TEV cleavage, second Ni-NTA); not shown: His tag (inferred from the Ni-NTA purification), N-terminal, cleaved
# T4 sequence (looked up): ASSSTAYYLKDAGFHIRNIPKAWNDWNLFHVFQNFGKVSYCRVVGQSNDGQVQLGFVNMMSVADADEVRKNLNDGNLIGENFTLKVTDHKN
# T5: TOFU-6^RRM D26A/W27A (C. elegans, UniProt Q09293 2-92, D26A | W27A)
# T5 construct: TOFU-6, C. elegans, RRM domain, residues 2-92, with D26A and W27A; Cloned into pET28-MHL; also called D26A/W27A(TOFU-6RRM); source: E. coli BL21(DE3), purified (Ni-NTA, TEV cleavage, second Ni-NTA); not shown: His tag (inferred from the Ni-NTA purification), N-terminal, cleaved
# T5 sequence (looked up): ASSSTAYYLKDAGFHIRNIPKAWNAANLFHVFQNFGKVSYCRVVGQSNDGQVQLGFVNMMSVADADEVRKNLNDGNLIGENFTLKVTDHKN
# Tests used:
# [1] = target: T1, ERH-2^1-103-(Gly-Ser-Ser)7-PICS-1^180-20 …; test: ITC; MicroCal ITC200, 25 °C; 20 mM Tris pH 8.5, 200 mM NaCl or 20 mM MES pH 6.5, 200 mM NaCl; 1-2 mM protein or peptide in the syringe titrated into 30-50 μM protein in the cell; one-site model; Kd mean ± SD of a minimum of two experiments; conditions: both partners purified
# ERH-2 = target: T2, ERH-2; test: as above; conditions: both partners purified
# ERH-2 D67A = target: T3, ERH-2 D67A; test: as above; conditions: both partners purified
# [2] = target: the molecule itself; test: SEC; gel filtration of PICS-1^RRM wild type and F217E alone, HiLoad 16/600 Superdex 75; 20 mM Tris, 200 mM NaCl (pH 8.5 in the methods, pH 7.5 in the legend)
# [3] = target: T4, TOFU-6 RRM domain (TOFU-6^RRM, residues …); test: ITC; MicroCal ITC200, 25 °C; 20 mM Tris pH 8.5, 200 mM NaCl or 20 mM MES pH 6.5, 200 mM NaCl; 1-2 mM protein or peptide in the syringe titrated into 30-50 μM protein in the cell; one-site model; Kd mean ± SD of a minimum of two experiments; conditions: both partners purified
# TOFU-6^RRM D26A/W27A = target: T5, TOFU-6^RRM D26A/W27A; test: as above; conditions: both partners purified
stoichiometry N (ERH-2),stoichiometry N [3],Kd [3],Binder,further results
0.9,,,"NKRITLNERFGVLEKGYTIQA (domain or fragment, C. elegans, UniProt Q18490 34-54, looked up, TOST-1, C. elegans, residues 34-54; Fused to the C-terminus of SUMO (pET28-SUMO); the Kds are for the SUMO fusion; also called TOST-1 fragment; source: E. coli BL21(DE3), purified (Ni-NTA); not shown: SUMO, N-terminal, kept) [SUMO-TOST-1^34-54]",Kd [1]: 4.9 µM; stoichiometry N [1]: 0.9
0.7,,,"EDIKDSVFKVLHAEEEPRGAD (domain or fragment, C. elegans, UniProt O76616 180-200, looked up, Fused to the C-terminus of SUMO (pET28-SUMO); the Kds are for the SUMO fusion; also called PICS-1EBM; source: E. coli BL21(DE3), purified (Ni-NTA); not shown: SUMO, N-terminal, kept) [SUMO-PICS-1^180-200 (ERH-2 binding motif, EBM)]",stoichiometry N (ERH-2 D67A): 0.8
,0.7,,"PICS-1^RRM F217E (domain or fragment, C. elegans, UniProt O76616 201-282, looked up, Cloned into pET28-MHL; also called F217E(PICS-1RRM); source: E. coli BL21(DE3), purified (Ni-NTA, TEV cleavage, second Ni-NTA, gel filtration); not shown: His tag (inferred from the Ni-NTA purification), N-terminal, cleaved) QENMLKISGYPGMLNTEGIAQLLTPYRVNGITITGAQSAVVALENKFQVYQAVQDFNGKKLDRNHKLQVSSLVVSSPAVPLE",
,1.1,17 µM,"PICS-1^RRM K246A/F247A (domain or fragment, C. elegans, UniProt O76616 201-282, looked up, Cloned into pET28-MHL; Some legends and the strain list print K245A/F246A for the transgene; also called K246A/F247A(PICS-1RRM); source: E. coli BL21(DE3), purified (Ni-NTA, TEV cleavage, second Ni-NTA); not shown: His tag (inferred from the Ni-NTA purification), N-terminal, cleaved) QENMLKISGYPGMLNTFGIAQLLTPYRVNGITITGAQSAVVALENAAQVYQAVQDFNGKKLDRNHKLQVSSLVVSSPAVPLE",

# Further lines, the binder ahead of its results:
Binder,stoichiometry N (ERH-2),stoichiometry N [3],Kd [3],further results
"PICS-1(PID-3) RRM domain (PICS-1^RRM, residues 201-282) (domain or fragment, C. elegans, UniProt O76616 201-282, looked up, Homodimer by gel filtration and in the crystal structure; The methods describe co-expression with TOFU-6^RRM from pETDuet-1 for the complex; the results say that the two domains were purified each for ITC; also called WT; source: E. coli BL21(DE3), purified (Ni-NTA, TEV cleavage, second Ni-NTA, gel filtration); not shown: His tag (inferred from the Ni-NTA purification), N-terminal, cleaved) QENMLKISGYPGMLNTFGIAQLLTPYRVNGITITGAQSAVVALENKFQVYQAVQDFNGKKLDRNHKLQVSSLVVSSPAVPLE",,1.1,,binding result [2]: binds; Kd (TOFU-6^RRM D26A/W27A): 30 µM; stoichiometry N (TOFU-6^RRM D26A/W27A): 0.7
"PICS-1^RRM Y250A/Q251A (domain or fragment, C. elegans, UniProt O76616 201-282, looked up, Cloned into pET28-MHL; also called Y250A/Q251A(PICS-1RRM); source: E. coli BL21(DE3), purified (Ni-NTA, TEV cleavage, second Ni-NTA); not shown: His tag (inferred from the Ni-NTA purification), N-terminal, cleaved) QENMLKISGYPGMLNTFGIAQLLTPYRVNGITITGAQSAVVALENKFQVAAAVQDFNGKKLDRNHKLQVSSLVVSSPAVPLE",,1.2,21 µM,

# Reference: PMC8458385, “Molecular basis for PICS-mediated piRNA biogenesis and cell division” (Nature Communications, 2021)
